One data set can be described thus: in vivo. Conditions: rat; for SUV / SUV at 2 h: both sexes, Sprague-Dawley, total radioactivity; for SUV / SUV at 2 h / Uptake in most of the organs (SUV): iv; for SUV at 2 h: Uptake within 120 min in blood, heart, lung, pancreas, adrenal gland, small intestine, large intestine, testis, muscle and brain (SUV). The method, then: Animal studies were performed using healthy female and male Sprague–Dawley rats: one male and one female animal per time point and tracer (Table 1). The animal experiments were approved by the local Ethics Committee for Animal Research and performed in accordance with local institutional and Swedish national rules and regulations. The animals were kept at a constant temperature (20 °C) and humidity (50%) in a 12-h light-dark cycle and given free access to food and water.
(§1) [^68Ga]Ga-NO2A-Col or [^68Ga]Ga-NODAGA-Col was injected into the tail vein of rats as a bolus with 500 µL phosphate-buffered saline (pH 7.4) as the vehicle (Table 1). The injected amount of the peptides was 0.8 ± 0.2 nanomoles. The animals were euthanized by a CO2–O2 mixture at 5, 10, 20, 40, 60 and 120 min post-injection. The radioactivity of the excised organs was measured in a well-type NaI(Tl) scintillation counter, applying correction for dead-time and radioactivity decay. The weight of the tissues was determined simultaneously. The remaining carcass was also measured in order to monitor the radioactivity elimination and recovery. Samples from blood, heart, lung, liver, spleen, adrenal glands, kidneys, intestines, with or without contents, muscle, testis, bone, brain, pancreas, urine bladder and bone marrow were collected. The radioactivity readings were decay-corrected to the time of the injection, and the results were expressed as standardized uptake values (SUV; Equation (1)), where the radioactivity of an organ and injected radioactivity was expressed in MBq, and the weight of a rat and organ was expressed in g. (1) SUV=Radioactivityorgan×weightrat/Radioactivityinjected×weightorgan

On the set-up of data set [1]: species or system human. Conditions: in vivo. The method, then:
Human organ and total body absorbed and effective dose estimates were calculated according to the Medical Internal Radionuclide Dose (MIRD) procedure using the measured residence times and the dose rate S-values. The SUV values in rat were first multiplied with the appropriate radioactivity decay factor dependent on the time point of the data post-injection, then multiplied by standard organ masses and divided by the standard total-body weight for the standard adult man phantom obtained from the OLINDA/EXM 1.1 software (Organ Level Internal Dose Assessment Code, Vanderbilt University, Nashville, TN, USA, 2007). The values obtained correspond to the fraction of injected radioactivity (%IA) per organ in man as a function of time (Equation (2), where SUVA is the SUVs of rat organs; gorgan and kgTBweight are respectively the standard organ weight and standard total body weight of a human). (2) (%IAOrgan)human=SUVA×(gorgan/kgTBweight)human
The cumulative radioactivity for the organs was determined by integrating the area under the time-radioactivity curves for each organ using trapezoidal approximation of the collected kinetic data, followed by extrapolation of remaining points from the last time point to infinity by a single exponential fit. The residence time for each organ is equal to the number of disintegrations (MBq × h/MBq). Bone marrow residence time was assessed according to the bone marrow blood model. The residence time for the remaining carcass was calculated in the same way as for the other organs, and this value was used as input in the OLINDA software as “remainder”. The “remainder” of the body residence time was calculated from SUV due to radioactivity measured in the rest of the body after the removal of the source organs and tail. The difference between the theoretical residence time and the calculated residence time of the source organs plus the remainder of the body was assumed to have been in the tail or excreted. The kidney absorbed dose was calculated based on a multi-region kidney model phantom. The total target organ absorbed dose (D) is contributed by all source organs and is expressed by Equation (3), where Ã is the time-integrated radioactivity in the source tissue (rS) and S is the radionuclide-specific dose rate values: (3) D(rT,t)=∑rSÃ(rS,t)×S(rT←rS,t)
The similarity of the biodistribution pattern in human and rat and the homogeneous distribution of radioactivity throughout the organ were two basic assumptions considered when extrapolating rat biodistribution data to the human species for the calculation of the absorbed and total effective doses. The organ distribution study was conducted for 120 min. The residence time was determined using the trapezoidal rule, wherein the area from the injection time to the termination time was calculated. […] The values were higher for male animals. This is because the residence time is integrated over the entire tissue using the standardized human dosimetry model of organ volumes, where in the human male model, the muscle volume is around 1.65-times higher than that in the female model (28 vs. 17 kg), and the male model blood volume (5.5 L) is almost 1.5 larger than in the female model (3.8 L). The other tissues are also larger in the male model, but to a lesser extent. During the calculation of the absorbed dose in each tissue (mSv/MBq) by OLINDA, the values are again divided with each tissue’s volume, providing final dose values.
Absorbed doses and total effective doses were calculated using residence time values as the input into OLINDA/EXM 1.1, the MIRD scheme of an adult (70 kg) and recommended tissue weighting factors from the International Commission on Radiological Protection (ICRP, 2007). The absorbed doses (mGy/MBq) and total effective doses (mSv/MBq) obtained from OLINDA/EXM 1.1 calculations are presented in Table 2. […]

The conditions of data set [2]: rat, in vivo, iv. As for the experimental part: as §1, with “SUV=Radioactivityorgan×weightrat/Radioactivityinjected×weightorgan […]” for “SUV=Radioactivityorgan×weightrat/Radioactivityinjected×weightorgan”
Where [3] appears, read: Uptake in most of the vital organs, including heart and lung (SUV).
The mark [4] stands for this setting: Uptake in small and large intestines (SUV).

Positions of bridges follow the written chain, without caps; N, C: chain ends. Residues, ends and D or L forms follow the SMILES beside them. *: point of attachment. NODAGA = O=C(O)CN1CCN(CC(=O)O)CCN(C(CCC(=O)*)C(=O)O)CC1; NOTA = O=C(O)CN1CCN(CC(=O)O)CCN(CC(=O)*)CC1; AEEA = NCCOCCOCC(=O)O

With `CSCC[C@@H]1NC(=O)[C@H](C(C)C)NC(=O)[C@H](CCCNC(=N)N)NC(=O)CNC(=O)[C@@H]2CCCN2C(=O)[C@@H](NC(=O)COCCOCCNC(=O)CN2CCN(CC(=O)O)CCN(CC(=O)O)CC2)CSSC[C@@H](C(=O)O)NC(=O)[C@@H]2CCCN2C(=O)CNC(=O)[C@H](CCC(=O)O)NC(=O)[C@H](CC(=O)O)NC(=O)[C@H](CC(=O)O)NC(=O)CNC(=O)[C@H](CC(C)C)NC(=O)[C@H](Cc2c[nH]cn2)NC(=O)[C@H](CC(C)C)NC(=O)CNC(=O)[C@H](Cc2c[nH]cn2)NC1=O` [[^68Ga]Ga-NO2A-Col, metal not drawn] ({NOTA-AEEA}-CPGRVMHGLHLGDDEGPC-OH; disulfide 1-18), the SUV in the data set “in vivo” (Kidney uptake (SUV)) is more than 10 SUV. In “in vivo” (setting [3]), the SUV was less than 0.5 SUV. Moreover, in the data set “in vivo” (setting [4]), the SUV was less than 0.1 SUV. In “in vivo” (Uptake in the brain (SUV)), the SUV was less than 0.01 SUV. Besides, in “in vivo”, the SUV at 2 h is less than 0.1 SUV and the “Uptake in most of the organs (SUV)” value is recorded as “below one”. Besides, in data set [1], the “Absorbed dose in liver and spleen relative to [^68Ga]Ga-NODAGA-Col” value was “two-fold lower”; the “Effective dose per administration” value was 0.78–1.64 mSv; the “Estimated absorbed dose, Adrenals” value is listed as 0.009 mGy/MBq; the “Estimated absorbed dose, Breasts” value is 0.016 mGy/MBq. For the same compound, in data set [1], the “Estimated absorbed dose, Uterus” value is 0.019 mGy/MBq; the “Highest organ absorbed dose (kidneys)” value is 0.1 mGy/MBq; the “Kidney absorbed dose as share of maximum allowed dose of 50 mGy to a single organ” value was “about 20%”; the “PET examinations per year before reaching the red marrow limiting dose” value was “over 1000”. Moreover, in data set [1], the “Radioactivity before reaching the red marrow limiting dose” value is given as “over 200 GBq”, the “Radioactivity that could be administered per year if limited by kidney dose” value was “over 1460 MBq” and the “Total dose per examination (PET plus CT)” value is listed as 1.78–2.64. Also, in data set [2], the “Share of radioactivity accounted for by the single exponential blood clearance phase” value was “over 98%”.

Take `CSCC[C@@H]1NC(=O)[C@H](C(C)C)NC(=O)[C@H](CCCNC(=N)N)NC(=O)CNC(=O)[C@@H]2CCCN2C(=O)[C@@H](NC(=O)COCCOCCNC(=O)CCC(C(=O)O)N2CCN(CC(=O)O)CCN(CC(=O)O)CC2)CSSC[C@@H](C(=O)O)NC(=O)[C@@H]2CCCN2C(=O)CNC(=O)[C@H](CCC(=O)O)NC(=O)[C@H](CC(=O)O)NC(=O)[C@H](CC(=O)O)NC(=O)CNC(=O)[C@H](CC(C)C)NC(=O)[C@H](Cc2c[nH]cn2)NC(=O)[C@H](CC(C)C)NC(=O)CNC(=O)[C@H](Cc2c[nH]cn2)NC1=O` (some centres unmarked) [[^68Ga]Ga-NODAGA-Col, metal not drawn] ({NODAGA-AEEA}-CPGRVMHGLHLGDDEGPC-OH; disulfide 1-18): the SUV in the data set “in vivo” (Kidney uptake (SUV)) is more than 10 SUV. Also, in “in vivo” (setting [3]), the SUV was less than 0.5 SUV. Also, in the data set “in vivo” (setting [4]), the SUV is less than 0.1 SUV. The SUV in the data set “in vivo” (Uptake in the brain (SUV)) was less than 0.01 SUV. For the same compound, in “in vivo”, the SUV at 2 h is less than 0.1 SUV; the “Radioactivity that stayed in liver and spleen” value is “Over 85%”; the “Uptake in most of the organs (SUV)” value was “below one”. In addition, in data set [1], the “Effective dose per administration” value was 0.78–1.64 mSv; the “Estimated absorbed dose, Brain” value is 0.002 mGy/MBq; the “Estimated absorbed dose, Breasts” value is listed as 0.016 mGy/MBq; the “Estimated absorbed dose, Spleen” value was 0.011 mGy/MBq. In addition, in data set [1], the “Estimated absorbed dose, Uterus” value is listed as 0.019 mGy/MBq; the “Highest organ absorbed dose (kidneys)” value was found to be 0.1 mGy/MBq; the “Increase of liver residence time/absorbed dose versus [^68Ga]Ga-NO2A-Col” value is reported as 100%; the “Kidney absorbed dose as share of maximum allowed dose of 50 mGy to a single organ” value is approximately 21%. Besides, in data set [1], the “PET examinations per year before reaching the red marrow limiting dose” value is reported as “over 1000”, the “Radioactivity before reaching the red marrow limiting dose” value is “over 200 GBq”, the “Radioactivity that could be administered per year if limited by kidney dose” value is listed as “over 1460 MBq” and the “Total dose per examination (PET plus CT)” value is on record as 1.78–2.64. In addition, in data set [2], the “Share of radioactivity accounted for by the single exponential blood clearance phase” value is on record as “over 98%”.

Values taken from PMC4932549, “Feasibility of Multiple Examinations Using ^68Ga-Labelled Collagelin Analogues: Organ Distribution in Rat for Extrapolation to Human Organ and Whole-Body Radiation Dosimetry” (Pharmaceuticals, 2016).
